Measured values published in the supplement of paper PMC10567573.

B1: VTI1B (parent)
chain: NKLLLSIIILLELAILGGLVYYKF
B2: ZNF449 (parent)
chain: TLHQRTHTEERPFKCNYCGKSFRQ

Variants of: B1
Assay: protein stability index of a GFP-peptide fusion (GPS, HEK-293T) (PSI 1-6); higher = more stable
Settings: c terminus: a fixed tail appended
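Further: lentivirally expressed fusions sorted by FACS into six bins by GFP to DsRed ratio, PSI derived from sequencing read proportions per bin multiplied by bin number.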

| Variant | protein stability index |
| --- | --- |
| L4I | 2.94 |
| L4H | 3.22 |
| L4S | 2.38 |
| L4C | 2.35 |
| L4K | 2.39 |
| L4W | 2.25 |
| L4M | 1.8 |
| L4Y | 2.34 |
| L4G | 2.29 |
| L4Q | 3.91 |
| L4D | 3.75 |
| L4E | 2.47 |
| L4T | 1.51 |
| L4N | 2.28 |
| L4A | 3.17 |
| L4F | 3.51 |
| A14L | 3.61 |
| A14Q | 3.3 |
| A14M | 2.43 |
| A14S | 2.35 |
| A14I | 1.84 |
| A14F | 3.19 |
| A14C | 2.98 |
| A14Y | 3.19 |
| A14K | 2.48 |
| A14R | 3.34 |

| Variant | protein stability index |
| --- | --- |
| A14W | 3.4 |
| A14E | 3.15 |
| A14N | 2.81 |
| L16D | 2.8 |
| L16W | 2.31 |
| L16K | 3.6 |
| L16T | 2.9 |
| L16I | 1.99 |
| L16C | 2.13 |
| L16H | 4.31 |
| L16V | 2.62 |
| L16G | 3.79 |
| L16P | 2.27 |
| L16S | 2.23 |
| L16R | 2.77 |
| L16A | 4.1 |
| I9C | 2.97 |
| I9T | 2.58 |
| I9V | 3.42 |
| I9Q | 3.18 |
| I9L | 2.16 |
| I9E | 2.85 |
| I9P | 3.12 |
| I9R | 3.19 |
| I9N | 3.49 |
| I9S | 4.04 |

| Variant | protein stability index |
| --- | --- |
| I9K | 3.22 |
| I9G | 2.8 |
| I9Y | 2.38 |
| I9W | 1.51 |
| Y22G | 3.7 |
| Y22K | 1.71 |
| Y22W | 3.83 |
| Y22H | 3.4 |
| Y22C | 2.53 |
| Y22N | 2.47 |
| Y22P | 3.8 |
| Y22V | 3.2 |
| Y22I | 3.12 |
| Y22L | 3.17 |
| Y22A | 3.55 |
| Y22R | 2.92 |
| Y22T | 2.95 |
| Y22E | 1.54 |
| Y22D | 2.55 |
| I8E | 2.35 |
| I8M | 2.81 |
| I8L | 3.04 |
| I8K | 2.87 |
| I8W | 2.33 |
| I8Q | 3.49 |
| I8F | 2.03 |

| Variant | protein stability index |
| --- | --- |
| I8T | 3.41 |
| I8R | 1.95 |
| I8V | 2.56 |
| I8N | 3.11 |
| I8P | 2.61 |
| I8Y | 3.31 |
| V20R | 3.41 |
| V20T | 3.34 |
| V20N | 2.81 |
| V20Y | 2.87 |
| V20W | 2.84 |
| V20F | 2.98 |
| V20P | 2.94 |
| V20I | 2.23 |
| V20M | 3.01 |
| V20A | 2.12 |
| V20L | 3.59 |
| V20K | 3.48 |
| V20S | 2.32 |
| F24R | 3.27 |
| F24W | 1.83 |
| F24D | 3.03 |
| F24Y | 1.63 |
| F24T | 3.12 |
| F24Q | 2.77 |
| F24G | 2.52 |

| Variant | protein stability index |
| --- | --- |
| F24K | 1.52 |
| F24L | 2.53 |
| F24N | 1.86 |
| F24A | 2.47 |
| F24E | 3.85 |
| F24H | 2.07 |
| G17L | 3.46 |
| G17Y | 2.5 |
| G17D | 1.51 |
| G17I | 2.35 |
| G17Q | 3.08 |
| G17K | 3.17 |
| G17E | 3.26 |
| G17W | 3.38 |
| G17S | 3.45 |
| G17N | 2.64 |
| G17T | 3.94 |
| G17F | 3.71 |
| I15T | 2.54 |
| I15Q | 2.44 |
| I15H | 2.83 |
| I15V | 4.17 |
| I15C | 2.38 |
| I15G | 3.52 |
| I15W | 2.18 |
| I15L | 2.62 |

| Variant | protein stability index |
| --- | --- |
| I15S | 3 |
| I15K | 3.29 |
| I15N | 1.43 |
| I15M | 3.49 |
| I15P | 3.21 |
| I15D | 3.64 |
| L11V | 1.49 |
| L11E | 3.84 |
| L11Q | 3.26 |
| L11G | 2.94 |
| L11F | 2.39 |
| L11T | 2.53 |
| L11S | 3.88 |
| L11N | 3.97 |
| L11M | 3.36 |
| L11K | 2.59 |
| L11H | 4.16 |
| L11R | 3.68 |
| E12A | 2.13 |
| E12Y | 2.01 |
| E12V | 2.85 |
| E12D | 2.99 |
| E12G | 1.55 |
| E12H | 2.64 |
| E12K | 2.66 |
| E12C | 2.57 |

| Variant | protein stability index |
| --- | --- |
| E12F | 2.17 |
| E12S | 2.68 |
| E12Q | 3.45 |
| E12W | 1.82 |
| E12M | 2.4 |
| E12I | 2.73 |
| L19I | 3.35 |
| L19K | 2.67 |
| L19C | 2.05 |
| L19E | 4.42 |
| L19Q | 3.21 |
| L19A | 3.32 |
| L19H | 1.56 |
| L19G | 3.14 |
| L19R | 2.95 |
| L19Y | 2.48 |
| L19N | 3.02 |
| L19M | 2.76 |
| L19D | 3.31 |
| L10S | 4.51 |
| L10K | 3.36 |
| L10I | 2.55 |
| L10Y | 2.8 |
| L10Q | 1.98 |
| L10M | 2.86 |
| L10P | 3.62 |

| Variant | protein stability index |
| --- | --- |
| L10G | 2.46 |
| L10D | 2.71 |
| L10R | 2.63 |
| L10H | 3.04 |
| L10E | 3.16 |
| L10C | 3.11 |
| L10V | 3.92 |
| L10F | 2.6 |
| L10A | 2.44 |
| L10T | 1.93 |
| Y21D | 3.33 |
| Y21E | 2.28 |
| Y21C | 3.01 |
| Y21R | 2.32 |
| Y21L | 3.39 |
| Y21P | 2.42 |
| Y21G | 3.61 |
| Y21H | 2.32 |
| Y21Q | 3.37 |
| Y21T | 2.79 |
| Y21K | 2.65 |
| Y21I | 2.42 |
| Y21W | 2.62 |
| Y21N | 2.3 |
| Y21A | 1.46 |
| Y21F | 3.24 |

| Variant | protein stability index |
| --- | --- |
| S6H | 2.51 |
| S6I | 1.85 |
| S6W | 2.11 |
| S6K | 2.63 |
| S6D | 2.42 |
| S6N | 2.47 |
| S6C | 3.11 |
| S6V | 2.5 |
| S6G | 1.88 |
| S6E | 3.51 |
| S6M | 2.86 |
| S6P | 3.12 |
| S6T | 3.52 |
| S6Q | 3.32 |
| S6Y | 2.76 |
| I7Q | 2.44 |
| I7H | 2.65 |
| I7C | 2.9 |
| I7T | 3.78 |
| I7K | 2.41 |
| I7Y | 2.74 |
| I7A | 2.32 |
| I7W | 3.61 |
| I7R | 3.87 |
| I7L | 3.54 |
| I7E | 1.86 |

| Variant | protein stability index |
| --- | --- |
| I7F | 2.31 |
| I7M | 3.23 |
| I7G | 3.04 |
| I7D | 2.84 |
| I7N | 2.1 |
| L13A | 2.4 |
| L13D | 2.7 |
| L13G | 3.93 |
| L13E | 2.44 |
| L13F | 3.1 |
| L13V | 1.79 |
| L13R | 3.24 |
| L13Q | 2.92 |
| L13H | 3.39 |
| L13I | 3.27 |
| L13W | 3.72 |
| L13N | 2.58 |
| L13S | 3.71 |
| L3E | 2.84 |
| L3K | 1.85 |
| L3V | 3.79 |
| L3D | 3.73 |
| L3W | 2.79 |
| L3T | 2.98 |
| L3C | 2.54 |
| L3G | 2.83 |

| Variant | protein stability index |
| --- | --- |
| L3P | 3.24 |
| L3M | 2.52 |
| L3H | 3.76 |
| L3N | 3.2 |
| L3S | 1.78 |
| N1M | 2.75 |
| N1E | 4.24 |
| N1A | 3.04 |
| N1R | 2.99 |
| N1C | 3.66 |
| N1G | 3.29 |
| N1I | 2.97 |
| N1P | 1.77 |
| N1K | 1.85 |
| N1V | 2.54 |
| N1H | 3.67 |
| N1T | 3.56 |
| N1D | 3 |
| L5F | 2.55 |
| L5T | 3.88 |
| L5R | 1.8 |
| L5C | 2.61 |
| L5N | 3.71 |
| L5E | 4.19 |
| L5D | 2.64 |
| L5W | 1.86 |

| Variant | protein stability index |
| --- | --- |
| L5H | 3.13 |
| L5K | 2.14 |
| L5V | 2.08 |
| K23S | 2.05 |
| K23R | 2.49 |
| K23E | 2.78 |
| K23M | 4.1 |
| K23N | 2.72 |
| K23W | 2.23 |
| K23G | 2.08 |
| K23T | 2.41 |
| K23I | 2.95 |
| K23V | 3.21 |
| K23P | 3.73 |
| G18L | 2.61 |
| G18E | 2.07 |
| G18V | 2.56 |
| G18I | 3.09 |
| G18C | 3.99 |
| G18F | 1.55 |
| G18R | 2.65 |
| G18N | 2.96 |
| G18T | 2.61 |
| G18H | 2.46 |
| G18Q | 2.61 |
| G18Y | 1.86 |

| Variant | protein stability index |
| --- | --- |
| K2P | 2.43 |
| K2I | 3.89 |
| K2T | 2.66 |
| K2H | 2.48 |
| K2D | 2.35 |
| K2N | 1.92 |
| K2Q | 4.47 |
| K2Y | 3.38 |
| K2R | 2.99 |
| K2E | 2 |
| K2C | 2.17 |
| K2V | 3.38 |
| K2A | 3.74 |
| K2W | 2.8 |

Variants of: B2
Assay: as above
Settings: c terminus: a fixed tail appended

| Variant | protein stability index |
| --- | --- |
| Q24R | 1.67 |
| Q24V | 1.75 |
| Q24W | 2.12 |
| Q24N | 2.27 |
| Q24T | 2.75 |
| Q24P | 2.87 |
| Q24Y | 3.2 |
| Q24S | 3.49 |
